Results from patent US20260055188A1 (SHENGHE CHINA BIOPHARMACEUTICAL, published 2026).

Target: T1, human CD24 on MCF-7 tumor cells (human, UniProt P25063 27-59)
T1 construct: whole, on cells; also called CD24 protein; MCF-7 tumor cells with high expression of human CD24
T1 chain (looked up): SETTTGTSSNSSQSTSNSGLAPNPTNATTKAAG
Assay: flow cytometry on MCF-7 cells, 150 nM antibody, anti-human IgG Fc detection
Procedure: 100 μL of dilution was added to the blank control group, and 100 μL of fluorescent secondary antibody dilution was added to the rest of the sample groups respectively. After incubation for 0.5 h at room temperature and 4° C. protected from light, PBS was added to wash and centrifuged (3000 rpm, 3 min) twice. After discarding the supernatant, 80 μL of the dilution was added and resuspended.

B1: anti-CD24 control antibody (variable region SEQ ID NO: 9 and SEQ ID NO: 13, constant region of human IgG1 SEQ ID NO: 85 and SEQ ID NO: 86) (antibody, V domains shown)
VH: EVQLQESGPGLVKPSQTLSLTCTVSGYSITSGYTWHWIRQFPGNKLEWIGHIQYTGNTKYNPSLESRITISRDTSKNQFSLKLSSVTAADTATYYCARGSTNSNDYWGQGTLVTVSS
VL: DIVMTQSPSSLAVSLGERATINCKSSQSLLYSNDQKNYLAWYQQKPGQSPKLLIYWASTRESGVPDRFSGSGSGTDFTLTISSLQAEDVAVYYCQQYFIYPLTFGGGTKLELKR
E1 Mean PE-A: 4.45e+06
